# Legend:
# c-Src = assay: phosphorylation enrichment, bacterial display (enrichment ratio); higher = better substrate or ligand; peptides without Tyr show the background
# c-Abl (mouse) = assay: as above
# Hck = Hck (UniProt P08631); assay: as above
# MERTK = MERTK (UniProt Q12866); assay: as above
# AncSZ = assay: as above
# EPHB2 = EPHB2 (UniProt P29323); assay: as above
# Fyn = Fyn (UniProt P06241); assay: as above
# Fes = Fes (UniProt P07332); assay: as above
# Jak2 = Jak2 (UniProt O60674); assay: as above
# FGFR1 = FGFR1 (UniProt P11362); assay: as above
# FGFR1, sequence (P11362 whole entry, looked up): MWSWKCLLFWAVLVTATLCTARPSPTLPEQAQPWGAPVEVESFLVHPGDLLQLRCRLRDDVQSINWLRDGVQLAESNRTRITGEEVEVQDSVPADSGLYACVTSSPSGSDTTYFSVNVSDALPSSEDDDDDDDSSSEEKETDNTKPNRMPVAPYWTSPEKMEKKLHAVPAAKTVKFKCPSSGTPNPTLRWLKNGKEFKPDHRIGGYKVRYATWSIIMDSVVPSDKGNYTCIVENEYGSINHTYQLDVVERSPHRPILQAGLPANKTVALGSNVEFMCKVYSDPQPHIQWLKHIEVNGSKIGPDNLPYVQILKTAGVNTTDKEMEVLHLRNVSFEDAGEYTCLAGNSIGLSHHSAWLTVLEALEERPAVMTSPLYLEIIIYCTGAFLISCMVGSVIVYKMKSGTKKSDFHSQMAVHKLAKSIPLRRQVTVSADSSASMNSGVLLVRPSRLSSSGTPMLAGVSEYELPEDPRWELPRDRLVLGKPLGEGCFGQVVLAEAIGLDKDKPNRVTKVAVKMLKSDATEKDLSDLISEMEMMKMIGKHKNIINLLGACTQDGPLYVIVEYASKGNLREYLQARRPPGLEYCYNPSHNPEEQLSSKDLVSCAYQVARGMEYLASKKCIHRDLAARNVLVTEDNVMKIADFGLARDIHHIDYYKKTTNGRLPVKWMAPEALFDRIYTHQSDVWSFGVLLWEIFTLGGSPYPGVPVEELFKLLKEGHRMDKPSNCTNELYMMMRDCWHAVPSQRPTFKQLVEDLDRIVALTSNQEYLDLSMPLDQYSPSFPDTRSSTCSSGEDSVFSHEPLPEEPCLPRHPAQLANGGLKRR
# FGFR3 = FGFR3 (UniProt P22607); assay: as above
# FGFR3, sequence (P22607 whole entry, looked up): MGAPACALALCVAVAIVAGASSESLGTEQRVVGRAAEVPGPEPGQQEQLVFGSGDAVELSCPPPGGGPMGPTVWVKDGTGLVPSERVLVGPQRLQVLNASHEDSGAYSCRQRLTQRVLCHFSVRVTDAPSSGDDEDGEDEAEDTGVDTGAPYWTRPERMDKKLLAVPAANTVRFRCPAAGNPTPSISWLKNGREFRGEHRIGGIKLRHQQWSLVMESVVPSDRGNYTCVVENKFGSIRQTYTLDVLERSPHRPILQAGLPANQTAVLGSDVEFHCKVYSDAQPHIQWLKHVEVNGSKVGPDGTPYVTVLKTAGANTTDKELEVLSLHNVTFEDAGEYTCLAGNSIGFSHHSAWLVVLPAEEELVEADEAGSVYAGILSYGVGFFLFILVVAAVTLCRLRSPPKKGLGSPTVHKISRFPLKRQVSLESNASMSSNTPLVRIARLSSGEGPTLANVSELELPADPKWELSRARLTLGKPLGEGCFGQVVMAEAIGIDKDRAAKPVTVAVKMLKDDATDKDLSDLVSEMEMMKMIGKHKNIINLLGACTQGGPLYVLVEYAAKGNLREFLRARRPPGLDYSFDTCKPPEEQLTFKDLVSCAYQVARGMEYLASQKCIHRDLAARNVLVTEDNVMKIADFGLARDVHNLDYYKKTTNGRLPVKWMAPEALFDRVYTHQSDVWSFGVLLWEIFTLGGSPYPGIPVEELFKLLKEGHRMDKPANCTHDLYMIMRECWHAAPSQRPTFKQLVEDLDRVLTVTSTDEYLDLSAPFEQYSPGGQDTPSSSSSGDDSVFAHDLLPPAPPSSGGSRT
# EPHB1 = EPHB1 (UniProt P54762); assay: as above
# Fer (mouse) = assay: as above
# SHP2-C SH2 = assay: SH2 binding enrichment of the phosphorylated peptide, bacterial display (enrichment ratio); higher = better substrate or ligand; peptides without Tyr show the background
# c-Src SH2 = assay: as above
# Grb2 SH2 = Grb2 SH2 (UniProt P62993); assay: as above
# 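Throughout, for SH2 binding enrichment of the phosphorylated peptide, bacterial display: peptide library displayed on the E. coli surface as eCPX fusions, selected cells deep-sequenced, score is each peptide's frequency after selection divided by its frequency in the input.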
# 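Throughout, for phosphorylation enrichment, bacterial display: 11-residue human phosphosite peptides and single-mutation variants displayed on the E. coli surface, counted by deep sequencing, each peptide's frequency after selection divided by its frequency in the unselected input library; frequency after pTyr selection over input frequency; kinase dosed for 20-30% of maximal phosphorylation in three min.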
# MERTK, sequence (Q12866 whole entry, looked up): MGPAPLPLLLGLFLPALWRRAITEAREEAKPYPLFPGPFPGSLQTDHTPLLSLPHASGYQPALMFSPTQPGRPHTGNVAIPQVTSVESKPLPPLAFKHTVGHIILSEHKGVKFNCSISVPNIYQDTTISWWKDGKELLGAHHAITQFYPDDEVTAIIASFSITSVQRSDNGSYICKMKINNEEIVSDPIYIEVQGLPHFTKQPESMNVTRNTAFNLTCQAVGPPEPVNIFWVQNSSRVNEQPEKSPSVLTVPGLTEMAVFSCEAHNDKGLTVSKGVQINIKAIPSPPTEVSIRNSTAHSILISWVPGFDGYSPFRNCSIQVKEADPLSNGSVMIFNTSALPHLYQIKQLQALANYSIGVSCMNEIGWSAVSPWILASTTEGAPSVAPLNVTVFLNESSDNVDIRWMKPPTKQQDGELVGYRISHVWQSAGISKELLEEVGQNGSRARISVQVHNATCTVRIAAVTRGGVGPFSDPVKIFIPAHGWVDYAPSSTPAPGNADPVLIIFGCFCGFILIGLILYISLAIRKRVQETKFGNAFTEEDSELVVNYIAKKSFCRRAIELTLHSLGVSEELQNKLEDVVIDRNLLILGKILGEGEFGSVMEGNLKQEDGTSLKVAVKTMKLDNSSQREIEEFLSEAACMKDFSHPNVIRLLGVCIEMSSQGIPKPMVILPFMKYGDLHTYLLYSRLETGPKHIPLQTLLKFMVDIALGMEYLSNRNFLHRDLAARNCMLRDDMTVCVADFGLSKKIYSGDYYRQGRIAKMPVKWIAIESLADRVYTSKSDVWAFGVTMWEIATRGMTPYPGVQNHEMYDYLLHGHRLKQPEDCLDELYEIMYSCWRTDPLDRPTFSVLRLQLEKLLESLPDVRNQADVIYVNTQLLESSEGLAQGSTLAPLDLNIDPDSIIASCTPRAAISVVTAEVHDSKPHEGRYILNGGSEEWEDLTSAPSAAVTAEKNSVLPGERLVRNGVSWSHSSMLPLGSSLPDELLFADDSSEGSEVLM
# Hck, sequence (P08631 whole entry, looked up): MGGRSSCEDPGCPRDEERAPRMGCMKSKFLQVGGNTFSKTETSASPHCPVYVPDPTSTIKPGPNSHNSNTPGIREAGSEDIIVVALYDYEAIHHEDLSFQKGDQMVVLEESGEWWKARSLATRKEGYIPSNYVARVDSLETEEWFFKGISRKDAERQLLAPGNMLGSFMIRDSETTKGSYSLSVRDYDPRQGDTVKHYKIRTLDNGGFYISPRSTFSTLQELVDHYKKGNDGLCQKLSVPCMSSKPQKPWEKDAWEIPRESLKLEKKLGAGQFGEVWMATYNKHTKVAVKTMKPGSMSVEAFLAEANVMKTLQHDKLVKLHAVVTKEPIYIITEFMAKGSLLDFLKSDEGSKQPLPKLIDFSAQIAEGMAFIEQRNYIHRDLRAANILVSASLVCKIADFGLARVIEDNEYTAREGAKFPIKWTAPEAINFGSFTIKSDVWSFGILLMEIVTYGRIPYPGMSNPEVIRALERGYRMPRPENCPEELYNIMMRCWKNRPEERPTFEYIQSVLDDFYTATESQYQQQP
# Fes, sequence (P07332 whole entry, looked up): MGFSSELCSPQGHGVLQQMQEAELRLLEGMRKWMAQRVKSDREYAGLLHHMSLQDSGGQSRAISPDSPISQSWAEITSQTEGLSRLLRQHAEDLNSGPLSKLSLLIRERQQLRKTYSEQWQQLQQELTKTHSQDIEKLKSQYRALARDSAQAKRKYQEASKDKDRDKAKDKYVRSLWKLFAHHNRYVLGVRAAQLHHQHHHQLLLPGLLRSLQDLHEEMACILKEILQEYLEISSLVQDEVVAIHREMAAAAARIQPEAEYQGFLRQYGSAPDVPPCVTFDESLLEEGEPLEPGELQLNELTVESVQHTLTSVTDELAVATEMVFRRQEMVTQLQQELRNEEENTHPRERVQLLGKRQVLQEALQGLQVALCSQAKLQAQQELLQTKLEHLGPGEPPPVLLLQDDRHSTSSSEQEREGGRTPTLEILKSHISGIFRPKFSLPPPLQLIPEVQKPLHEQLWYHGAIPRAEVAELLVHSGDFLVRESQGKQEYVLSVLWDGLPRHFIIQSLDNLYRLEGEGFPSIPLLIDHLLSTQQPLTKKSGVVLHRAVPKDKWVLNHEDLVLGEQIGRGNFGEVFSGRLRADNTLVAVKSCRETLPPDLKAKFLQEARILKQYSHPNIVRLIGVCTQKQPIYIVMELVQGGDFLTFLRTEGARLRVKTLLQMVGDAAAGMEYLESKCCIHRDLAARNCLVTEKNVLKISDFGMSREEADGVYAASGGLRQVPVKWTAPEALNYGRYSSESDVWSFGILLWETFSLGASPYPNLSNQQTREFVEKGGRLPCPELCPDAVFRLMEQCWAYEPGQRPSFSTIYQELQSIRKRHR
# EPHB2, sequence (P29323 whole entry, looked up): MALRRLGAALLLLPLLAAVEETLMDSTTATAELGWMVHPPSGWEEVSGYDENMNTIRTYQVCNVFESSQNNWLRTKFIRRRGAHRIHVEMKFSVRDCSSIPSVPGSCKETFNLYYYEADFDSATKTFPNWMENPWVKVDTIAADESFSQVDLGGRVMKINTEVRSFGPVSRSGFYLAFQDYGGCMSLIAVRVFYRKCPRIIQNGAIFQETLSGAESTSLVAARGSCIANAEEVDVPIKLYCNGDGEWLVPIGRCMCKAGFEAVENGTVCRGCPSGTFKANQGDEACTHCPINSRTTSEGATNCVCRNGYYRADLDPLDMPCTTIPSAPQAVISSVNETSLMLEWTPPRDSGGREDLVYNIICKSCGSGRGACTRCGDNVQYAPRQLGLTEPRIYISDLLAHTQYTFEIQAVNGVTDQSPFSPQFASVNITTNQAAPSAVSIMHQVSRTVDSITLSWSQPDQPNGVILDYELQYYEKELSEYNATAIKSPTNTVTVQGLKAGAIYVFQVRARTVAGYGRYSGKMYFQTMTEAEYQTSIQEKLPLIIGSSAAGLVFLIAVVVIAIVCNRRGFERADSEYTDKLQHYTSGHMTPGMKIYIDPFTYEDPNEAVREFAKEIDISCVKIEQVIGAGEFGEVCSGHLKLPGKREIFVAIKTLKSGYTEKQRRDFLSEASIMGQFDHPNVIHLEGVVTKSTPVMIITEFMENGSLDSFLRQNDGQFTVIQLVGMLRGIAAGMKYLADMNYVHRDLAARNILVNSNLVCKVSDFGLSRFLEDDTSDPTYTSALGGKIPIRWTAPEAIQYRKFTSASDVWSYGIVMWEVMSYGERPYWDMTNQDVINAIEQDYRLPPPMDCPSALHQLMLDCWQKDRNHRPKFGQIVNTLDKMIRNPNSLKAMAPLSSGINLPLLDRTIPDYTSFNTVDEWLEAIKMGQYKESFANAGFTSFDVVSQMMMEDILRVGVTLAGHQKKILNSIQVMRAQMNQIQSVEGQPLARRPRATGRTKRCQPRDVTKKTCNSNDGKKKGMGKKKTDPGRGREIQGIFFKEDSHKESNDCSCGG
Sequence,SH2 binding enrichment (SHP2-C SH2),SH2 binding enrichment (c-Src SH2),SH2 binding enrichment (Grb2 SH2),phosphorylation enrichment (c-Src),phosphorylation enrichment (c-Abl (mouse)),phosphorylation enrichment (Hck),phosphorylation enrichment (MERTK),phosphorylation enrichment (AncSZ),phosphorylation enrichment (EPHB2),phosphorylation enrichment (Fyn),phosphorylation enrichment (Fes),phosphorylation enrichment (Jak2),phosphorylation enrichment (FGFR1),phosphorylation enrichment (FGFR3),phosphorylation enrichment (EPHB1),phosphorylation enrichment (Fer (mouse))
AAAAVYTFLPD [MYORG_Y36_M35V],0.79,1.92,0.882,7.02,1.12,6.52,9.47,1.48,2.45,8.32,1.2,0.979,12.4,10.6,3.68,1.85
AAFNKYDQERF [CDC73_Y293_R292K_YF],0.776,0.44,0.867,0.414,0.494,0.375,0.396,0.692,0.483,0.485,0.785,0.599,0.412,0.531,0.401,0.428
AATTAYSKPKR [MAP3K7_Y405],0.712,0.693,0.935,0.354,0.509,0.384,0.302,0.404,0.264,0.281,0.563,0.425,0.337,0.37,0.275,0.317

# Second part, led by results:
SH2 binding enrichment (SHP2-C SH2),SH2 binding enrichment (c-Src SH2),SH2 binding enrichment (Grb2 SH2),Sequence,phosphorylation enrichment (c-Src),phosphorylation enrichment (c-Abl (mouse)),phosphorylation enrichment (Hck),phosphorylation enrichment (MERTK),phosphorylation enrichment (AncSZ),phosphorylation enrichment (EPHB2),phosphorylation enrichment (Fyn),phosphorylation enrichment (Fes),phosphorylation enrichment (Jak2),phosphorylation enrichment (FGFR1),phosphorylation enrichment (FGFR3),phosphorylation enrichment (EPHB1),phosphorylation enrichment (Fer (mouse))
0.662,0.457,0.813,AALSAYAAQRP [PTPRN2_Y249],0.315,0.377,0.386,0.312,0.439,0.353,0.305,0.491,0.462,0.406,0.433,0.299,0.347
0.68,0.416,0.879,AASTDYFKRGD [PDHA1_Y242_YF],0.352,0.421,0.45,0.325,0.625,0.454,0.462,0.663,0.57,0.402,0.426,0.372,0.363
0.546,6.48,0.759,AAVPAYDKIQV [STXBP2_Y401_R405Q],0.593,0.96,1.09,0.688,0.92,0.417,0.612,1.43,1.06,0.66,0.666,0.793,5.58
1.55,0.419,0.883,ADDSFYTARSA [ZAP70_Y493_YF],0.707,0.561,1.01,0.681,0.822,0.534,0.711,0.993,0.877,0.55,0.904,0.597,0.451
0.996,1.19,1.05,ADFPDCKFRPR [SOX11_Y116_Y116C_YF],0.465,0.744,0.545,0.391,0.783,0.409,0.395,0.983,0.965,0.532,0.616,0.488,0.412

# — the supplement of paper PMC10065799, “High-throughput profiling of sequence recognition by tyrosine kinases and SH2 domains using bacterial peptide display” (eLife, 2023)
